Results taken from the nanobody polyreactivity screen of Harvey et al. (2022).

test: yeast display, Sf9 membrane polyspecificity reagent, FACS + sequencing; frameworks hold sequencing errors
In short: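 Polyreactivity labels are assigned by the sorting gate from which each nanobody was recovered. The gates were low and high (top ~1%), set on anti-HA fluorescence for expression and streptavidin fluorescence for reagent binding. Before sorting, galactose-induced (36–48 hours) yeast display cells were stained for 1 hour at 4 °C with 10% biotinylated, detergent-solubilized Sf9 membrane reagent.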

| Sequence | polyreactivity (PSR sort gate) |
| --- | --- |
| QVQLVESGGGLVQAGGSLRLSCAASGSIFFLYARGWYRQAPGKERELVAAISRSGGNTYYADSVKGRFTISRDNAKNSVYLQMNSLKPEDTAVYYCAADGVHRGGRGGYWGQGTQVTVSS | high polyreactivity |
| QLQLVESGGRLVQAGGSLRLSCAASGFIFRWNAMGCYIQAPGKASEFVAAITSSTGSTYYAVSVKGRFTISRDNAKNTVYLQMNSLKPEDTAVYDCAADKRGTVYLSSFWMDYWGQGTQVTVSS | low polyreactivity |
| QVQIVESGGGLVQAGGSLRLSCAASGRIFCGNVMGWYRQAPGKERELVAAISGRGGRTYYAHSVKGRFTISRDNAKNTVYLQMNSLKPEDTAVYYCAASTGEEISGKRYNYWGQGTQVTVSS | high polyreactivity |
| QVQLVESGGGLVQAGGSLRLSCAASGSIFSPNAMGWYRQAPGKERQLVAAIRSGGSTYYADSVKGRFTISRDNAKNSVYLQMNSLKPADTAVYYCAADTYTYYYYLARYYYWGQGTQVTVSS | low polyreactivity |
| QVQLVESGVGLVQAGGSLRLSCAASGIFYGYAMGWYRQAPGKERELVAAISSGGSTYYADSVKGRFTISRDNAKNTVYLQMISLNPEDTAVYYCAAGKKRPGWTFPRYYWGQGTQVTVSS | high polyreactivity |
| QVQLVESGGGLVQAGGSLLLSCAASGGTFRVYAMGSYRQAPVKERELVAAITWRGGRTYYGDSVKGRFTISRDHAKNTVYLQMKRVKPEDTAVYFCAADRYGDLYDYWGQGTQVTVSS | high polyreactivity |
| QVQLVESGGGLVQAGGSLRLSCAASGRTSVRYAMGWYRQAPGKERELVAAISWSGGSTYYADSVKGRFTISRDNAKNTVYLQMNSLKPEDTAVYYCNAQHARGYYYWGQGTQVTVSS | low polyreactivity |
| QVQLVESGGGLVQAGGSLRLSCSASGRTFSWYAMGWYRQAPGKERELVAAISWSGGSTYYADSVKGRFTISRDNAKNTVYLQMNSLKPEDTAVYYCNAVGRPLRGYDYWGQGTQVTVSS | high polyreactivity |
| QVQLVESGGGLVQAGGSLRVSCAASGRIIGQYAMGWSRQAPGKEWELVASISRRGGSTYYAASVKGRFTISRDNAKKTVYLQMYSLKPEDTAVYYCAKERTYGHYDYWGQGTQVTVSS | high polyreactivity |
| QVQLVESGGGLVQAGGSLRLSCASSGLTFGGYTMGLSRQAPGKERELVAAITSGGSTYYADSVKGRFTISRDNAKNTVYLQMNSLKPEDTAVYYCAARVRGWPVSKFGYWGQGTQVTVSS | high polyreactivity |
| QVQLVESGGGLVQAGGSLRLSCAAYGSTFVWNTMGWYLQAPGKERELVAAINWSGTRTYYADSVKGRFTISRDNAKNTVYLQMNSLKPEDTAVYYCAAESYYPAGIRGYWGQGTQVTVSS | high polyreactivity |
| QVQLVESGGGLVQAGGSLRLSCAASGSTFPLYAMGWYRQAPGKERELVAAITWSGANTYYADSVKGRFTISRDNAKNTVYLQMNSLKPEDTAVYYCAALYYWDQPQLEFSYWGQGTQVTVSS | low polyreactivity |
| QVQLVESGGGLVQAGGSLRLSCAASGITFARYAMGWYRQAPGKERELVAAISRNAGRTYYADSVKGRFTISRDNAKNTVYLQMNSLKPEDTAVYYCAAVTKSSVPGSRYDYWGQGTQVTVSS | high polyreactivity |
| QVQLVESGGGLVQAGGSLRLSCAASGRIFQAYAMGWYRQAPGKERELVAAISRSGGGTYYADSVKGRFTISRDNAKNTVYLQMNSLKPEDTAVYYCNARGSTARGRGYWGQGTQVTVSS | high polyreactivity |
| QVQLVESGGGLVQARGILRLSCAASGIIFYTYAMGLYRQAPGKERELVAAITARTANTYYADSVKGRFTISRDNAKNTVYLQMNSLKPEDTAVYYCAAAIYSYRTPYYYWGQGTQVTVSS | high polyreactivity |
| QVQLVESGGGLVQAGGSLRLSCAASGRIFDWYAMGWYRQAPGKERELVAAITTSADRTYYADSVKGRFTISRDNAKNTVYLQMNSMKPEDTAVYYCNADAFGGYDEYDYWGQGTQVTVSS | low polyreactivity |
| QVQLVESGGGLVQAGGSLRLSCAASGRIFGSNAMGWYRQAPGKERELVATITKNGTSTYYADSVKGRFTISRDNAKNTVYLQMNSLKPEDTAVYYCARAPLRYSSRYEYWGQGTQVTVSS | low polyreactivity |
| QVQLVESGGGLVQAGGSLRLSCAASGSTFGDYAMGWYRQAPGKERELVAAMSRGGSTYYADSVKGRFTISRDNAKNTVYLQMNSLKPEDTAVYYCNKDEGYSASPDGSTFDYWGQGTQVTVSS | low polyreactivity |
| QVQLVESGGGLVQAGGSLRLSCAASGFIFYRYALGWYRQAPGKERELVAAISRSGGSTYYADSVKVRFTISRDNAKNTVYLQMNSLKPEDTAVYYCAVTGYWYYHDHYSYPSRYYYWGQGTQVTVSS | high polyreactivity |
| QVQLLESGGGLVQAGGSLRLSCASSGYTIIQYAMGWYRQAPGKERELVAGNTWSGGSTYADSVKGRFTISRDNAKNTVYLQMKSLKQEDTAVYYCAADQEPGKYRFPYARKNNYWGQGTQVTVSS | low polyreactivity |
| QVQLVESGGGLVQAGGSLRLSCAASGSTFVTNDMGWYRQAPGKERDLVADISWSGGDTYYADSVKGRFTISRDNAKNTVYLQMNSLKPEDTAVYYCAARPDQGLAYSPLPWYNYWGQGTQVTVSS | low polyreactivity |
| QVQLVESGGRLVQAGGSLRLSCAASGSNLLWNTMGWYRQAPGKERELVAGITSGGNTYYADSVKGRFTISRDNAKNTVYLKMNSLKPEDTAVYYCSYYYWGQGTQVTVSS | low polyreactivity |
| QVQLVESGGGLVQAGGSLRLSCAASGSILDYKVMGWYRQPPGKERELVAAIRGGGSTYYADSVKGRFTISRDNAKNTVYLQMNSLKPEVTAVYYCAKDSQTARDFDYWGQGTQVTVSS | low polyreactivity |
| QLQLVESGGGLVQAGGSLRLSCAASGLTFSYYAMGSYRQAPGKERELVAAITSSGGNTYYADSVKGRFTISRDNANNTVYLQMNSMKPEDTAVYYCAAERYQSFCYGKRPRRPRYDYWGLGTQVTVSS | high polyreactivity |
| QVQLVESGGGLVQAGASLRLSCAASGSTFDYYAMGWSRQAPGKELELVDAISRGGSTNYADSVKGRFTISRDNAKNSVYLQMNILKPEDTAVYYCAAAPTYRWHDGYWGQGTQVTVSS | low polyreactivity |
| QVHLVESGGGLVQAGGSLRLSCAASGRTFHYYAMGWYRQAPGKERELVAAISVSGGSTYYADSVKGRFTISRDNAKNTVYLQMNSLKPEDNAVYYCAADDYLVEHDYWGQGTQVTVSS | low polyreactivity |
| QVQLVESGGGLVQAGGSLRLSCAASGYIFRLYAMGWYRQAPGKERELVATITASGGTYYADSVKGRFTISRDNAKNTVYLQMNSLKPEDTAVYYCAAAKLRRLSRVRYGYWGQGTQVTVSS | high polyreactivity |
| QVQLQESGGGLLQAGGSLRLSCAASGTIFRFRYMGWHRQAPGKERELVAGINGGTTTYYADSVIGRFTISRDNAKNTVYLQMNSLKPDDTAVYNCAAGASRLTYYDYWGQGTQVTVSS | low polyreactivity |
| QVQLVESGGGLVQAGGSLRLSCAASGSNFDLNAMGWYRQAPGKERELVAAISSGGGTYYADSVKGRFTISRDNAKTPVYLQMNSLKPEDTAVYYCNRVTRWTYNYWGQGTQVTVSS | high polyreactivity |
| QVHLVESGGGLVQAGGSLRLSCAASGRIFARNAKGWYRQAPGKERELVATIRVGGGSTYYADSVKGRYTISRDNAKNTVYLQMNSLKPEDTAVYYCAVRQLYSYPGDRRGYYWGQGTQVTVSS | low polyreactivity |
